According to PMC11488661 (Science immunology, 2024):
Substitutions are numbered along the chain they refer to.

B1: g28-D78-1_CLK09 (antibody, V domains shown)
VH: QVQLVQSGAEVKKPGASVKVSCKTSGYTFTAYYVHWVRQAPGQGLEWMGWINPTNGATNYAQIFQGRVTMTRDTSISTAYMELNRLRSDDTAVYYCARVGGLWAFDIWGQGTIVTVSS
VL: DIQMTQSPSSLSASVGDRVTITCQTSQHITRNLNWYQQKPGKAPKLLISDAYNLKIGVPSRFSGSGSGTDFTFTISSLQPEDVATYYCQQYEFFGGGTEVEIK
B2: g28-D78-19_CLK09 (antibody, V domains shown)
VH: B1 VH
VL: B1 VL with T25A
B3: g28-D78-14_CLK09 (antibody, V domains shown)
VH: QVQLVQSGAEVKKPGASVRVSCKASGYTFTGNYIHWVRQAPGQGLEWMGWLNPINGGTNHAQKFQGRVTMTRDTSISTAYMELSRLRSDDTTVYYCARVGGLWFGKGWTFDIWGQGTMVTVSS
VL: DIQMTQSPSSLSASVGDRVTITCQASQDISILNWYQQKPGKAPKLLIYGASNLETGVPSRFSGSGSGTDFTLTISSLQPEDIATYYCQQYEFFGGGTKVAIK
B4: g28-D78-17_CLK09 (antibody, V domains shown)
VH: B3 VH with F104L
VL: B3 VL with L72F, A100E
B5: g28-D78-21_CLK09 (antibody, V domains shown)
VH: QLQESGAEVKKPGASVRVSCKASGYTFTGNYIHWVRQAPGQGLEWMGWVNPINGGTNHAQKFQGRVTMTRDTSISTAYMELSRLRSDDTTVYYCARVGGLWFGKGWTFDIWGQGTMVTVSS
VL: B3 VL with L72F, A100R
B6: g28-D78-7_CLK09 (antibody, V domains shown)
VH: B3 VH with S77N, R87K, F104S
VL: B3 VL with L72F, A100E
B7: g28-D78-10_CLK09 (antibody, V domains shown)
VH: QLQLVQSGADVKKPGASVKVSCKASGYTFTGYFIHWVRQAPGQGLEWMGWLNPIYGGVNYARNFQGRVTMTRDTSISTAYLELRRLKSDDTAVYYCARVAERMIFDVWGQGTMVTVSS
VL: DIQMTQSPSSLSASVGDRVTIACQASQDINNYVNWYQQKPGKAPKLLIYDASNLETGVPSRFSGSGSGTDFTFTISSLQPEDIATYYCQQYEFFGGGTKVEIK
B8: g28-D78-4_CLK09 (antibody, V domains shown)
VH: B7 VH with D10E, V37I, R84K
VL: B7 VL
B9: g28-D78-3_CLK09 (antibody, V domains shown)
VH: B7 VH with D10E, V37I, R84K
VL: B7 VL with E101R
B10: g28-D78-16_CLK09 (antibody, V domains shown)
VH: QVQLVQSGAEVKKPGASVKVSCKASGYTFTGYHIHWVRQAPGQGLEWMGWVNPYHGGTNYAQIFQGRVTMTRDTSISTAYMELSRLRSDDTAVYYCALWFGEKKTFDIWGQGTMVTVSS
VL: B7 VL with A22T, D28G, N30S, Y32F, V33L, Y36F, A51V
B11: g28-D78-13_CLK09 (antibody, V domains shown)
VH: B7 VH with D10E, R84K
VL: B7 VL
B12: g28-D78-11_CLK09 (antibody, V domains shown)
VH: B7 VH with G66D
VL: B7 VL with A25S, D28G
B13: g28-D78-5_CLK09 (antibody, V domains shown)
VH: B7 VH with D10E, G66D
VL: B7 VL with N30S
B14: g28-D78-18_CLK09 (antibody, V domains shown)
VH: B10 VH with G31D
VL: B7 VL with A22T, D28G, N30S, Y32F, V33L, Y36F, A51V
B15: g28-D78-6_CLK09 (antibody, V domains shown)
VH: B7 VH with G66D
VL: B7 VL with A22V, G66R
B16: g28-D78-8_CLK09 (antibody, V domains shown)
VH: B7 VH with D10E, G26R, G66D
VL: B7 VL with N30S, E101R
B17: g28-D78-12_CLK09 (antibody, V domains shown)
VH: B7 VH with A9T, D10E, R84K, T91A
VL: B7 VL
B18: g28-D78-15_CLK09 (antibody, V domains shown)
VH: B7 VH with K13T, G31S, G57A, G66D
VL: B7 VL
B19: g28-D78-20_CLK09 (antibody, V domains shown)
VH: B7 VH with D10E, G66D
VL: B7 VL
B20: g28-D78-2_CLK09 (antibody, V domains shown)
VH: B7 VH with D10E, R84K
VL: B7 VL with G66R, E101R

Target: eOD-GT8 (monomeric ligand) (Human immunodeficiency virus 1, …)

| Binder | Kd [nM] |
| --- | --- |
| B1 | 7.1 |
| B2 | 8.8 |
| B3 | 0.29 |
| B4 | 0.25 |
| B5 | 0.87 |
| B6 | 0.2 |
| B7 | 11 |
| B8 | 6.5 |
| B9 | 7.1 |
| B10 | 130 |
| B11 | 11 |
| B12 | 9 |
| B13 | 6 |
| B14 | 82 |
| B15 | 7.6 |
| B16 | 8 |
| B17 | 11 |
| B18 | 160 |
| B19 | 6.8 |
| B20 | 15 |
